Source: patent publication US20260242735A1

How the values were obtained:
Test in all cases: alanine scan, flow cytometry, HEK293-T
[1] = target: human CD33 Q133A (human) (UniProt P20138)
[2] = target: human CD33 Q171A (human) (UniProt P20138)
[3] = target: human CD33 C101A (human) (UniProt P20138)
[4] = target: human CD33 M120A (human) (UniProt P20138)
[5] = target: human CD33 A183S (human) (UniProt P20138)
[6] = target: human CD33 K159A (human) (UniProt P20138)
[7] = target: human CD33 Y49A (human) (UniProt P20138)
[8] = target: human CD33 I66A (human) (UniProt P20138)
[9] = target: human CD33 D140A (human) (UniProt P20138)
[10] = target: human CD33 S68A (human) (UniProt P20138)
[11] = target: human CD33 R119A (human) (UniProt P20138)
[12] = target: human CD33 E154A (human) (UniProt P20138)
[13] = target: human CD33 S124A (human) (UniProt P20138)
[14] = target: human CD33 P175A (human) (UniProt P20138)
[15] = target: human CD33 D51A (human) (UniProt P20138)
[16] = target: human CD33 S181A (human) (UniProt P20138)
[17] = target: human CD33 Q80A (human) (UniProt P20138)
[18] = target: human CD33 Y127A (human) (UniProt P20138)
[19] = target: human CD33 H157A (human) (UniProt P20138)
[20] = target: human CD33 N76A (human) (UniProt P20138)
[21] = target: human CD33 P132A (human) (UniProt P20138)
[22] = target: human CD33 Y116A (human) (UniProt P20138)
[23] = target: human CD33 E121A (human) (UniProt P20138)
[24] = target: human CD33 P189A (human) (UniProt P20138)
[25] = target: human CD33 D95A (human) (UniProt P20138)
[26] = target: human CD33 S104A (human) (UniProt P20138)
[27] = target: human CD33 L187A (human) (UniProt P20138)
[28] = target: human CD33 R98A (human) (UniProt P20138)
[29] = target: human CD33 T75A (human) (UniProt P20138)
[30] = target: human CD33 G123A (human) (UniProt P20138)
[31] = target: human CD33 G114A (human) (UniProt P20138)
[32] = target: human CD33 G151A (human) (UniProt P20138)
[33] = target: human CD33 T191A (human) (UniProt P20138)
[34] = target: human CD33 A65S (human) (UniProt P20138)
[35] = target: human CD33 T162A (human) (UniProt P20138)
[36] = target: human CD33 V73A (human) (UniProt P20138)
[37] = target: human CD33 I47A (human) (UniProt P20138)
[38] = target: human CD33 A108S (human) (UniProt P20138)
[39] = target: human CD33 L134A (human) (UniProt P20138)
[40] = target: human CD33 S178A (human) (UniProt P20138)
[41] = target: human CD33 F177A (human) (UniProt P20138)
[42] = target: human CD33 L141A (human) (UniProt P20138)
[43] = target: human CD33 E85A (human) (UniProt P20138)
[44] = target: human CD33 Y59A (human) (UniProt P20138)
[45] = target: human CD33 P174A (human) (UniProt P20138)

human CD33 E121A (human), sequence (P20138 18-364 E121A limits assumed): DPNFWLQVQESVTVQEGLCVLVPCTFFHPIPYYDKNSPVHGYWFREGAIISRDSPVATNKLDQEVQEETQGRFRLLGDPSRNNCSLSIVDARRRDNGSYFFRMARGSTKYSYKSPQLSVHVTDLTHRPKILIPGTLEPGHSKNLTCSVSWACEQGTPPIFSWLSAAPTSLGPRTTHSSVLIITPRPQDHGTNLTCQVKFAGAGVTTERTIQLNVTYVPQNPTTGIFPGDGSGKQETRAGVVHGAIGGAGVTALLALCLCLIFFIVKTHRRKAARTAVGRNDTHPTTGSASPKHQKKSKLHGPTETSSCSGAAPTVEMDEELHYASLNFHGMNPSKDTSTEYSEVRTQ
human CD33 L141A (human), sequence (P20138 18-364 L141A limits assumed): as the sequence (P20138 18-364 E121A limits assumed) above, with A104E, L124A counted along it
human CD33 T191A (human), sequence (P20138 18-364 T191A limits assumed): as the sequence (P20138 18-364 E121A limits assumed) above, with A104E, T174A counted along it
human CD33 A65S (human), sequence (P20138 18-364 A65S limits assumed): as the sequence (P20138 18-364 E121A limits assumed) above, with A48S, A104E counted along it
human CD33 P175A (human), sequence (P20138 18-364 P175A limits assumed): as the sequence (P20138 18-364 E121A limits assumed) above, with A104E, P158A counted along it
human CD33 E85A (human), sequence (P20138 18-364 E85A limits assumed): as the sequence (P20138 18-364 E121A limits assumed) above, with E68A, A104E counted along it
human CD33 Y116A (human), sequence (P20138 18-364 Y116A limits assumed): as the sequence (P20138 18-364 E121A limits assumed) above, with Y99A, A104E counted along it
human CD33 C101A (human), sequence (P20138 18-364 C101A limits assumed): as the sequence (P20138 18-364 E121A limits assumed) above, with C84A, A104E counted along it
human CD33 S104A (human), sequence (P20138 18-364 S104A limits assumed): as the sequence (P20138 18-364 E121A limits assumed) above, with S87A, A104E counted along it
human CD33 P189A (human), sequence (P20138 18-364 P189A limits assumed): as the sequence (P20138 18-364 E121A limits assumed) above, with A104E, P172A counted along it
human CD33 S124A (human), sequence (P20138 18-364 S124A limits assumed): as the sequence (P20138 18-364 E121A limits assumed) above, with A104E, S107A counted along it
human CD33 S68A (human), sequence (P20138 18-364 S68A limits assumed): as the sequence (P20138 18-364 E121A limits assumed) above, with S51A, A104E counted along it
human CD33 Q80A (human), sequence (P20138 18-364 Q80A limits assumed): as the sequence (P20138 18-364 E121A limits assumed) above, with Q63A, A104E counted along it
human CD33 Q171A (human), sequence (P20138 18-364 Q171A limits assumed): as the sequence (P20138 18-364 E121A limits assumed) above, with A104E, Q154A counted along it

Refmab #7 (WM53) (antibody)
Mean % WT Binding [1]: 100 % WT binding
Mean % WT Binding [2]: 121 % WT binding
Mean % WT Binding [3]: 1.8 % WT binding
Mean % WT Binding [4]: 92 % WT binding
Mean % WT Binding [5]: 102 % WT binding
Mean % WT Binding [6]: 110 % WT binding
Mean % WT Binding [7]: 13.7 % WT binding
Mean % WT Binding [8]: 117 % WT binding
Mean % WT Binding [9]: 116 % WT binding
Mean % WT Binding [10]: 120 % WT binding
Mean % WT Binding [11]: 116 % WT binding
Mean % WT Binding [12]: 108 % WT binding
Mean % WT Binding [13]: 81.8 % WT binding
Mean % WT Binding [14]: 126 % WT binding
Mean % WT Binding [15]: 9.2 % WT binding
Mean % WT Binding [16]: 86.7 % WT binding
Mean % WT Binding [17]: 124 % WT binding
Mean % WT Binding [18]: 175 % WT binding
Mean % WT Binding [19]: 116 % WT binding
Mean % WT Binding [20]: 93.9 % WT binding
Mean % WT Binding [21]: 104 % WT binding
Mean % WT Binding [22]: 1.7 % WT binding
Mean % WT Binding [23]: 94.4 % WT binding
Mean % WT Binding [24]: 119 % WT binding
Mean % WT Binding [25]: 104 % WT binding
Mean % WT Binding [26]: 117 % WT binding
Mean % WT Binding [27]: 124 % WT binding
Mean % WT Binding [28]: 138 % WT binding
Mean % WT Binding [29]: 115 % WT binding
Mean % WT Binding [30]: 76 % WT binding
Mean % WT Binding [31]: 94.6 % WT binding
Mean % WT Binding [32]: 121 % WT binding
Mean % WT Binding [33]: 116 % WT binding
Mean % WT Binding [34]: 117 % WT binding
Mean % WT Binding [35]: 103 % WT binding
Mean % WT Binding [36]: 113 % WT binding
Mean % WT Binding [37]: 50.2 % WT binding
Mean % WT Binding [38]: 120 % WT binding
Mean % WT Binding [39]: 96.6 % WT binding
Mean % WT Binding [40]: 106 % WT binding
Mean % WT Binding [41]: 74.1 % WT binding
Mean % WT Binding [42]: 118 % WT binding
Mean % WT Binding [43]: 126 % WT binding
Mean % WT Binding [44]: 127 % WT binding
Mean % WT Binding [45]: 122 % WT binding
